According to the supplement of paper PMC10724198:
± gives the standard deviation of the averaged measurements.

System: Saccharomyces cerevisiae
Assay: protein stability index of tFT-peptide fusion (C-terminal peptide) (PSI (0-1 scale)); higher = more stable (slower turnover)
Conditions: genetic background: das1 deletion; temperature: 30 C
Protocol: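 MPS profiling in S. cerevisiae of the yeast C-terminome library: the last 12 aa of each annotated ORF are fused to the C-terminus of a sfGFP-mCherry timer, after a GGGS linker. Cells are FACS-sorted into 8 mCherry/sfGFP bins and deep-sequenced. PSI runs from 0 (unstable) to 1 (stable); wild type and das1Δ backgrounds, two technical replicates each.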

Point of comparison: VLAILFYPAWVE [YGR160W C-terminal 12 aa], protein stability index 0.5 ± 0.0098. Against it:
- TPQEILQRFQKQ [EAF1 C-terminal 12 aa] — higher, 0.6812 ± 0.0053
- TQSTVIATTSSV [NDL1 C-terminal 12 aa] — higher, 0.6904 ± 0.0063
- TRDAPRERSPTR [NPL3 C-terminal 12 aa] — higher, 0.716 ± 0.016
- TRFFDSKYFGCD [URK1 C-terminal 12 aa] — higher, 0.701 ± 0.0078
- TRSAWDRAQRRL [LCP5 C-terminal 12 aa] — higher, 0.697 ± 0.015
- TSAGSNIFSTGQ [BBP1 C-terminal 12 aa] — higher, 0.699 ± 0.011
- TSASSNLDDSFS [YPR002C-A C-terminal 12 aa] — higher, 0.69 ± 0.019
- TSGFCSLETSAE [YER023C-A C-terminal 12 aa] — higher, 0.697 ± 0.0079
- TSGGSIVLKGSS [YGR068W-A C-terminal 12 aa] — higher, 0.701 ± 0.026
- TSNDLPAECVIS [EGH1 C-terminal 12 aa] — higher, 0.72 ± 0.0097
- TSNNIFGSDQKY [MNN14 C-terminal 12 aa] — higher, 0.694 ± 0.016
- TSSTPKSPSSGS [SMY1 C-terminal 12 aa] — higher, 0.691 ± 0.018
- TSTLAVIPYPAF [YLR466C-B C-terminal 12 aa] — higher, 0.7177 ± 0.0022
- TTLCILFLFFTW [GOS1 C-terminal 12 aa] — lower, 0.386 ± 0.0071
- TTVPIVSKKRQK [POP3 C-terminal 12 aa] — higher, 0.685 ± 0.033
- TVNLIKSQLVRG [COQ9 C-terminal 12 aa] — higher, 0.6064 ± 0.0011
- TVRALNPFMKRV [SSD1 C-terminal 12 aa] — higher, 0.689 ± 0.046
- TYCEKYHVPSIQ [YAE1 C-terminal 12 aa] — higher, 0.6915 ± 0.0042
- TYFSKQFLKKEL [LTP1 C-terminal 12 aa] — higher, 0.746 ± 0.017
- TYRLGEWSKISV [POP1 C-terminal 12 aa] — higher, 0.694 ± 0.011
- VAAKIAALAGQQ [RPL5 C-terminal 12 aa] — higher, 0.708 ± 0.026
- VAQNPVLAAVIA [KAP123 C-terminal 12 aa] — lower, 0.455 ± 0.013
- VARLKDESENVW [COX16 C-terminal 12 aa] — higher, 0.689 ± 0.018
- VAVASASSSASS [VPH1 C-terminal 12 aa] — higher, 0.683 ± 0.019
- VDDIVSGVRKQE [CCT3 C-terminal 12 aa] — higher, 0.691 ± 0.028
- VDDSDGDETMQI [TDA1 C-terminal 12 aa] — higher, 0.70725 ± 0.00053
- VEDQSIEVKKEK [YPC1 C-terminal 12 aa] — higher, 0.684 ± 0.035
- VEFKYPEEIFHG [TPP1 C-terminal 12 aa] — higher, 0.712 ± 0.012
- VEGGGVQYTIVS [YDL023C C-terminal 12 aa] — higher, 0.679 ± 0.0039
- VEVEYLLRRLEE [ARO7 C-terminal 12 aa] — higher, 0.691 ± 0.013
- VFKMIMFIASNE [STU1 C-terminal 12 aa] — higher, 0.581 ± 0.0076
- VFLIISQHSLHS [YBL113W-A C-terminal 12 aa] — higher, 0.6652 ± 0.0044
- VFTRLYSTLWSY [YDR149C C-terminal 12 aa] — higher, 0.6867 ± 0.0054
- VIKCFTSSDMTS [NAG1 C-terminal 12 aa] — higher, 0.701 ± 0.026
- VKDFYKRLETLK [RRM3 C-terminal 12 aa] — higher, 0.6914 ± 0.0038
- VKNVLSKVVPPV [MTC2 C-terminal 12 aa] — higher, 0.688 ± 0.0078
- VKPSQDNVDSKD [OPI1 C-terminal 12 aa] — higher, 0.687 ± 0.0096
- VKQLEVSSGIKQ [HEM1 C-terminal 12 aa] — higher, 0.6929 ± 0.0017
- VLDVGSVLDVTI [PSR2 C-terminal 12 aa] — higher, 0.718 ± 0.035
- VLHSIISICRIF [VPS65 C-terminal 12 aa] — higher, 0.756 ± 0.014
- VMAWTFGYALIG [EMC6 C-terminal 12 aa] — higher, 0.654 ± 0.015
- VMKAKRKFNPYT [RRP7 C-terminal 12 aa] — higher, 0.6859 ± 0.0013
- VMPIFIYFYTVV [CDC1 C-terminal 12 aa] — lower, 0.38 ± 0.044
- VNADDEIENNVD [AMN1 C-terminal 12 aa] — higher, 0.674 ± 0.0091
- VNGGSKKRKAND [RMI1 C-terminal 12 aa] — higher, 0.664 ± 0.016
- VPEPGDQPLVQA [YPR078C C-terminal 12 aa] — higher, 0.725 ± 0.022
- VPLKEELFPSSS [COX6 C-terminal 12 aa] — higher, 0.718 ± 0.025
- VPVILREYKGSA [GCD2 C-terminal 12 aa] — higher, 0.725 ± 0.017
- VQRSASVVERQE [DUS4 C-terminal 12 aa] — higher, 0.6971 ± 0.0051
- VQRVILITHLNV [YOL083C-A C-terminal 12 aa] — higher, 0.6054 ± 0.0053
- VREYNKYCEAIL [VPS13 C-terminal 12 aa] — higher, 0.687 ± 0.01
- VRQMNRLATPLI [PUS2 C-terminal 12 aa] — higher, 0.7095 ± 0.0057
- VTGKEKFEKLRD [SPG3 C-terminal 12 aa] — higher, 0.724 ± 0.0027
- VTGPHDRWYVVG [ATG14 C-terminal 12 aa] — higher, 0.76 ± 0.019
- VTLLQMKKKLEG [PET20 C-terminal 12 aa] — higher, 0.6926 ± 0.0053
- VTPEEDEEEDEE [RPL22A C-terminal 12 aa] — higher, 0.68 ± 0.03
- VYGSERDIRAKF [TES1 C-terminal 12 aa] — higher, 0.8078 ± 0.007
- VYKDWEMNLMLS [ARG81 C-terminal 12 aa] — higher, 0.727 ± 0.025
- VYLSVIILMGNG [EMA17 C-terminal 12 aa] — lower, 0.212 ± 0.024

Same assay, conditions: genetic background: wild type; temperature: 30 C

Point of comparison: VQRSASVVERQE [DUS4 C-terminal 12 aa], protein stability index 0.694 ± 0.0013. Against it:
- TPQEILQRFQKQ [EAF1 C-terminal 12 aa] — higher, 0.732 ± 0.029
- TQSTVIATTSSV [NDL1 C-terminal 12 aa] — the same, 0.694 ± 0.027
- TRDAPRERSPTR [NPL3 C-terminal 12 aa] — lower, 0.65 ± 0.018
- TRFFDSKYFGCD [URK1 C-terminal 12 aa] — within error, 0.73 ± 0.072
- TRSAWDRAQRRL [LCP5 C-terminal 12 aa] — lower, 0.674 ± 0.013
- TSAGSNIFSTGQ [BBP1 C-terminal 12 aa] — higher, 0.752 ± 0.043
- TSASSNLDDSFS [YPR002C-A C-terminal 12 aa] — higher, 0.6996 ± 0.002
- TSGFCSLETSAE [YER023C-A C-terminal 12 aa] — within error, 0.735 ± 0.057
- TSGGSIVLKGSS [YGR068W-A C-terminal 12 aa] — lower, 0.6688 ± 0.0037
- TSNDLPAECVIS [EGH1 C-terminal 12 aa] — lower, 0.68843 ± 0.00034
- TSNNIFGSDQKY [MNN14 C-terminal 12 aa] — higher, 0.741 ± 0.037
- TSSTPKSPSSGS [SMY1 C-terminal 12 aa] — lower, 0.67 ± 0.014
- TSTLAVIPYPAF [YLR466C-B C-terminal 12 aa] — higher, 0.755 ± 0.045
- TTLCILFLFFTW [GOS1 C-terminal 12 aa] — lower, 0.401 ± 0.014
- TTVPIVSKKRQK [POP3 C-terminal 12 aa] — within error, 0.699 ± 0.01
- TVNLIKSQLVRG [COQ9 C-terminal 12 aa] — lower, 0.635 ± 0.047
- TVRALNPFMKRV [SSD1 C-terminal 12 aa] — within error, 0.656 ± 0.039
- TYCEKYHVPSIQ [YAE1 C-terminal 12 aa] — within error, 0.677 ± 0.04
- TYFSKQFLKKEL [LTP1 C-terminal 12 aa] — higher, 0.742 ± 0.009
- TYRLGEWSKISV [POP1 C-terminal 12 aa] — within error, 0.6913 ± 0.0047
- VAAKIAALAGQQ [RPL5 C-terminal 12 aa] — within error, 0.717 ± 0.028
- VAQNPVLAAVIA [KAP123 C-terminal 12 aa] — lower, 0.466 ± 0.015
- VARLKDESENVW [COX16 C-terminal 12 aa] — within error, 0.732 ± 0.041
- VAVASASSSASS [VPH1 C-terminal 12 aa] — within error, 0.682 ± 0.032
- VDDIVSGVRKQE [CCT3 C-terminal 12 aa] — lower, 0.677 ± 0.011
- VDDSDGDETMQI [TDA1 C-terminal 12 aa] — higher, 0.7369 ± 0.0011
- VEDQSIEVKKEK [YPC1 C-terminal 12 aa] — higher, 0.7136 ± 0.007
- VEFKYPEEIFHG [TPP1 C-terminal 12 aa] — lower, 0.6782 ± 0.0027
- VEGGGVQYTIVS [YDL023C C-terminal 12 aa] — lower, 0.669 ± 0.0067
- VEVEYLLRRLEE [ARO7 C-terminal 12 aa] — lower, 0.6589 ± 0.0044
- VFKMIMFIASNE [STU1 C-terminal 12 aa] — lower, 0.5559 ± 0.0028
- VFLIISQHSLHS [YBL113W-A C-terminal 12 aa] — lower, 0.646 ± 0.029
- VFTRLYSTLWSY [YDR149C C-terminal 12 aa] — lower, 0.145 ± 0.0086
- VIKCFTSSDMTS [NAG1 C-terminal 12 aa] — within error, 0.683 ± 0.053
- VKDFYKRLETLK [RRM3 C-terminal 12 aa] — higher, 0.7042 ± 0.0011
- VKNVLSKVVPPV [MTC2 C-terminal 12 aa] — within error, 0.669 ± 0.04
- VKPSQDNVDSKD [OPI1 C-terminal 12 aa] — lower, 0.668 ± 0.022
- VKQLEVSSGIKQ [HEM1 C-terminal 12 aa] — within error, 0.675 ± 0.043
- VLAILFYPAWVE [YGR160W C-terminal 12 aa] — lower, 0.529 ± 0.0053
- VLDVGSVLDVTI [PSR2 C-terminal 12 aa] — within error, 0.6934 ± 0.00093
- VLHSIISICRIF [VPS65 C-terminal 12 aa] — lower, 0.641 ± 0.036
- VMAWTFGYALIG [EMC6 C-terminal 12 aa] — lower, 0.452 ± 0.014
- VMKAKRKFNPYT [RRP7 C-terminal 12 aa] — within error, 0.6974 ± 0.0025
- VMPIFIYFYTVV [CDC1 C-terminal 12 aa] — lower, 0.343 ± 0.0079
- VNADDEIENNVD [AMN1 C-terminal 12 aa] — lower, 0.669 ± 0.022
- VNGGSKKRKAND [RMI1 C-terminal 12 aa] — lower, 0.663 ± 0.0079
- VPEFLLHRRNSI [NTE1 C-terminal 12 aa] — higher, 0.75 ± 0.05
- VPEPGDQPLVQA [YPR078C C-terminal 12 aa] — within error, 0.678 ± 0.023
- VPLKEELFPSSS [COX6 C-terminal 12 aa] — lower, 0.674 ± 0.0019
- VPVILREYKGSA [GCD2 C-terminal 12 aa] — lower, 0.665 ± 0.0075
- VQRVILITHLNV [YOL083C-A C-terminal 12 aa] — lower, 0.616 ± 0.0084
- VREYNKYCEAIL [VPS13 C-terminal 12 aa] — within error, 0.667 ± 0.033
- VRQMNRLATPLI [PUS2 C-terminal 12 aa] — higher, 0.7391 ± 0.0066
- VTGKEKFEKLRD [SPG3 C-terminal 12 aa] — within error, 0.685 ± 0.024
- VTGPHDRWYVVG [ATG14 C-terminal 12 aa] — lower, 0.659 ± 0.024
- VTLLQMKKKLEG [PET20 C-terminal 12 aa] — higher, 0.761 ± 0.042
- VTPEEDEEEDEE [RPL22A C-terminal 12 aa] — within error, 0.676 ± 0.062
- VYGSERDIRAKF [TES1 C-terminal 12 aa] — higher, 0.816 ± 0.068
- VYKDWEMNLMLS [ARG81 C-terminal 12 aa] — lower, 0.656 ± 0.024
- VYLSVIILMGNG [EMA17 C-terminal 12 aa] — lower, 0.247 ± 0.012
